From patent US20240279845A1, “METHOD FOR PREPARING A LIBRARY OF PEPTIDES OR A PEPTIDE” (ECOLE POLYTECHNIQUE FEDERALE DE LAUSANNE (EPFL), priority 2021, published 2024) come the findings set out here.

In series [1] the test system is Cc1cc(=O)oc2cc(NC(=O)[C@H](CCCNC(=N)N)NC(=O)[C@@H]3CCCN3C(=O)[C@@H](NC(=O)OC(C)(C)C)C(C)C)ccc12. Briefly: Substrate KM for protease screen, KLK5. The series is classed as biochemical. The conditions noted are these: other: KLK5. Here is the method: (§1) Crude macrocyclic libraries (4 mM DMSO stocks in 384-well LDV plates were transferred into 1536-well microtiter OptiPlates via ADE. Applied buffered solutions were prepared by filtration through PTFE syringe filters (0.22 μm) and assays were initiated by addition of protease (4.41 μl/well) in appropriate buffer (see list below) supplemented with bovine serum albumin (BSA; 0.1% w/v) and dispensed using a CERTUS automated liquid handler. Plates were incubated for 10 min at ambient temperature before fluorogenic substrate in appropriate buffer (4.5 μl) was added using a CERTUS automated liquid handler. Plates were centrifugated (800 g, 2 min) and fluorescence intensity was measured using a PHERAstar plate reader (excitation 384 nm, emission 440 nm) in time increments of 150 s over 15 min. Slopes of fluorescence increase (m) were calculated with Microsoft Excel (vers. 16.56). Negative controls were prepared without macrocycle. An average of 12 negative controls was used to calculate residual activities using Equation I below: […]
(§2) where [S]0 is the initial substrate concentration and KM is the Michaelis-Menten constant^12 for the enzyme and substrate.

In series [2] the test system is Cc1cc(=O)oc2cc(NC(=O)[C@H](CCCNC(=N)N)NC(=O)[C@H](Cc3ccccc3)NC(=O)OCc3ccccc3)ccc12. Briefly: Substrate KM for protease screen, PKal. The series is classed as biochemical. To be noted: other: PKal. Here is the method:
as §1, §2

Broadly, the Km is the substrate concentration at which the rate is half of its maximum.

PKal (Homo sapiens), sequence (chain, as listed by the source): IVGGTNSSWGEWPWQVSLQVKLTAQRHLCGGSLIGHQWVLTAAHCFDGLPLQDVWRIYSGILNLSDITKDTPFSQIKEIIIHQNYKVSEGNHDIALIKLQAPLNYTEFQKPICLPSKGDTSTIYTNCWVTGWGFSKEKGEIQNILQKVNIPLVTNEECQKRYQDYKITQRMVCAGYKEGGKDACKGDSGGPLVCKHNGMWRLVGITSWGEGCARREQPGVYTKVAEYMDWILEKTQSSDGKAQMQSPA

Turning to KLK5 (Homo sapiens), the Km in series [1] turned out to be 200 ± 10 µM.
Consider PKal (Homo sapiens), for which the Km in series [2] amounted to 120 ± 28 µM.
